Publication PMC7059798, “Phosphoglucomutase Is Not the Target for Galactose Toxicity in Plants” (Frontiers in Plant Science, 2020)

How the values were obtained:
purified protein [1] = substrate: O=P(O)(O)OC[C@H]1O[C@H](OP(=O)(O)O)[C@H](O)[C@@H](O)[C@@H]1O; assay: purified protein; format: biochemical, Arabidopsis thaliana; conditions: 50 mM TEAB pH 7.0, 2 mM MgCl2, Glc-1P as substrate, 25°C, catalytic intermediate, Figure 3 legend prints 4.3, varied: cofactor
purified protein [2] = substrate: O=P(O)(O)O[C@H]1O[C@H](CO)[C@@H](O)[C@H](O)[C@H]1O; assay: purified protein; format: biochemical, Arabidopsis thaliana; conditions: 50 mM TEAB pH 7.0, 2 mM MgCl2, 10 µM Glc-1,6bP, 25°C

B1: PGM3 (Arabidopsis thaliana) (protein)
chain: MVFKVSTVSTSPIDGQKPGTSGLRKKVKVFKQPNYLENFVQATFNALTAEKVKGATLVVSGDGRYYSKDAVQIIIKMAAANGVRRVWVGKNTLLSTPAVSAVIRERSGADGSKATGAFILTASHNPGGPTEDFGIKYNMENGGPAPESITDKIYENTKTIKEYPIAQDLPNVDISAVGVTSFEGPEGKFDVEVFDPADDYVKLMKSIFDFEAIRKLLSSPKFTFCYDALHGVAGAYAHRIFVEELGAQESALLNCTPKEDFGGGHPDPNLTYAKELVARMGLGKSDTGGEPPEFGAAADGDADRNMILGKRFFVTPSDSVAIIAANAIGAIPYFSSGLKGVARSMPTSAALDVVAKSLNLKFFEVPTGWKFFGNLMDAGMCSVCGEESFGTGSDHIREKDGIWAVLAWMSILAHKNKGNIDGNAKLVSVEDIVRQHWATYGRHYYTRYDYENVDAGKAKELMEHLVKLQSSIPEVNKIVKGIRSDVASVASADEFEYKDPVDGSISKHQGIRYLFEDGSRLVFRLSGTGSEGATIRLYIEQYEKDASKTGRESQEALSPLVDLALKLSKMEEFTGRSAPTVIT
notes: forward primer encodes (tag)HHHHHG-MVFKVSTVS
Purified protein [1]
  Km: 4.38 µM
Purified protein [2]
  Km: 90 µM
